{"source": "paper PMC4837482", "about": "“The complex binding mode of the peptide hormone H2 relaxin to its receptor RXFP1” (Nature Communications, 2016)", "key": {"RXFP1 E67A": {"target": "T1, RXFP1 E67A (Homo sapiens, UniProt Q9HBX9, E89A)", "T1 construct": "cells expressing full-length RXFP1 and mutants; expressed in transfected cells; host or cells: HEK293T", "T1 sequence (Q9HBX9 23-757 E89A limits assumed)": "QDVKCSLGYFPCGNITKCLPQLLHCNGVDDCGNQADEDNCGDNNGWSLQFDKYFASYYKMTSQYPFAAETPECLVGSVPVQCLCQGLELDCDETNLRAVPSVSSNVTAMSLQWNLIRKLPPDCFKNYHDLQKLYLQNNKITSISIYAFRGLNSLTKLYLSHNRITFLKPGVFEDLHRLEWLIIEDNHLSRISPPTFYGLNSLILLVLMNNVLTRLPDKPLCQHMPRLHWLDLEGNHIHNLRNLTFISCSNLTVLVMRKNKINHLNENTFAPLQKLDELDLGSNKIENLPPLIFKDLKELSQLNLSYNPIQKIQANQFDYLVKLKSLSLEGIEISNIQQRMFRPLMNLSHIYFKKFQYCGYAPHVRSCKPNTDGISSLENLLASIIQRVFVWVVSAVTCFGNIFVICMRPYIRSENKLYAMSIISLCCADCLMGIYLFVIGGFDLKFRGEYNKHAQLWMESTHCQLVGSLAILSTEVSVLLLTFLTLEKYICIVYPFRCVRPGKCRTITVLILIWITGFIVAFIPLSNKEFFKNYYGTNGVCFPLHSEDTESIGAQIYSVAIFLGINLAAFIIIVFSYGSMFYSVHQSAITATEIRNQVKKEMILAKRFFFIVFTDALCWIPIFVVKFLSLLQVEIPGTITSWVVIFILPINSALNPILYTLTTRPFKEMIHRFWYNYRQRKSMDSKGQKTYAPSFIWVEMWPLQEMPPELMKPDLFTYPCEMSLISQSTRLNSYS", "experiment": "cAMP activity assay (pCRE β-galactosidase reporter), transfected HEK293T cells", "format": "cell-based", "conditions": "construct E67A, ±s.e.m.", "procedure,_shortened": "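Absorbance at 570 nm from β-galactosidase cleavage of chlorophenol red-β-D-galactopyranoside, expressed as percentage of the maximal 5 μM Forskolin response (mean ± s.e.m., ≥3 experiments in triplicate). Stimulant was H2 relaxin in minimal media containing 1% DMSO.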"}, "RXFP1 G45W46-AA": {"target": "T2, RXFP1 G45W46-AA (Homo sapiens, UniProt Q9HBX9, G67A/W68A)", "T2 construct": "transiently transfected human embryonic kidney (HEK) 293T cells expressing full-length RXFP1 and mutants; expressed in transfected cells; host or cells: HEK293T", "T2 sequence (Q9HBX9 23-757 G67A/W68A limits assumed)": "T1 sequence (Q9HBX9 23-757 E89A limits assumed) with G45A, W46A, A67E", "experiment": "Eu-H2 relaxin saturation binding assay, transfected HEK293T cells", "conditions": "construct G45W46-AA, maximum H2 concentration 15 nM"}, "RXFP1(1–72)": {"target": "T3, RXFP1(1–72) (Homo sapiens, UniProt Q9HBX9)", "T3 construct": "GB1 (N, cleaved yes); made in house; host or cells: E. coli BL21 (DE3) trxB", "T3 sequence (Q9HBX9 23-94 limits assumed)": "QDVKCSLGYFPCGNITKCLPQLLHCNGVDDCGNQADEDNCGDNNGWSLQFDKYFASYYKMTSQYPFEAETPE", "experiment": "2D 1H-15N HSQC monitored H2 relaxin titration of 15N-labelled RXFP1(1–72)", "conditions": "50 μM 15N-labelled RXFP1(1–72); single-site binding curve fit of Asp51, Ala55, Thr61 chemical shifts; pH 6.8, 25 °C; read-out: affinity (Kd) of H2 relaxin for RXFP1(1–72)", "experimental": "All RXFP1(1–72) protein samples for nuclear magnetic resonance (NMR) experiments were prepared from lyophilized protein in 50 mM imidazole, with 10 mM CaCl2 at pH 6.8. Recombinant human gene-2 H2 relaxin peptide was kindly provided by Corthera. EL1^(475–486)/EL2-GB1 samples were prepared as described above. Titrant and titrand were dialyzed in the same buffer in the same vessel. All NMR experiments were routinely collected at 25 °C on a 700-MHz Bruker Avance HDIII spectrometer equipped with triple resonance cryoprobe. […] Backbone assignments were made from 3D HNCACB, HNCOCACB, HNCO and HNCACO experiments. Spectra were processed using NMRPipe (ref. [43]) and typically Fourier-transformed after applying Lorentz-to-Gauss window functions in the direct dimension and cosine bells in the indirect dimensions. NMR data were analysed using SPARKY (Goddard, T.D. and Kneller, D.G., University of California, San Francisco). Assignments of the mutant RXFP1(1–72) proteins were determined from the assignments of wild-type RXFP1(1–72).\nThe binding of H2 relaxin to RXFP1(1–72) was monitored by acquiring 2D ^1H-^15N Heteronuclear Single Quantum Coherence (HSQC; 2,048 × 256 data points) for each titration point of increasing H2 relaxin: 25, 50, 100, 200, 400 and 500 μM against 50 μM RXFP1(1–72). […]"}}, "note": "Substitutions are numbered along the chain they refer to. “And” between values parts separate entries of the source, which are not always exact repeats. Equal values may be shown once."}
{"substance": "H2 relaxin: two-chain 6-kDa peptide hormone structurally related to insulin; recombinant human gene-2 H2 relaxin provided by Corthera", "values": [{"measurement": "H2 relaxin pEC50", "setting": "RXFP1 E67A; cAMP reporter", "result": "11.13±0.13"}, {"measurement": "H2 relaxin Emax", "setting": "RXFP1 E67A; percentage of maximum response to 5 μM Forskolin", "result": "141.74±27.08 (5) %"}, {"measurement": "Kd", "setting": "RXFP1 G45W46-AA", "result": "> 20", "unit": "nM"}, {"measurement": "Kd", "setting": "RXFP1(1–72)", "result": "200 µM and ~200 µM"}]}
